Results on one substance are retold here after PMC3365061.

The target of this experiment is K5,83R-JMD (mouse). In words: co-IP; RFP chimeras immunoprecipitated with rabbit polyclonal anti-RFP on Protein A beads (Figure 2C also with E2 antibody to the E-cadherin cytoplasmic domain) from MDCK extracts, 0.1% Triton X-100 in CSK buffer (50 mM NaCl, 300 mM sucrose, 10 mM Pipes pH 6.8, 3 mM MgCl2), 4°C; stable or transient expression; with or without 10 µM MG-132 for 4 h, 10 mM NEM in the extraction buffer, Src-GFP or Hakai-FLAG expression; blots for p120-catenin and tubulin.

In the case of p120-catenin (natural protein), the fold amount co-immunoprecipitated, against WT-JMD is 10 fold and the fold increase of the amount co-immunoprecipitated upon proteasome inhibition is 0.4 fold.
